± gives the uncertainty stated by the source.
Experiment: protein stability index of a GFP-peptide fusion (yeast GPS) (PSI 1-4); higher = more stable; sorted into four equal gates, so the index is relative within each strain
Summary of the method: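 The protein stability index of a peptide was calculated by multiplying its read frequency in each gate by that gate's number and adding the products. The peptides were tiled 17-residue stretches of yeast proteins, fused downstream of GFP on a Cherry-expressing plasmid and carried in yeast as a pooled library. Mid-log cultures in leucine-free medium were sorted into four equal gates by GFP/Cherry ratio, and each gate's plasmids were PCR-amplified and Illumina-sequenced.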

Sequence | protein stability index (doa10∆) | protein stability index (ubr1∆) | protein stability index (pdr5∆) | protein stability index (san1∆)
INSENDYSRKQLGYGKF [NUT1] | 3.46 ± 0.26 | 3.17 ± 0.22 |  | 
QPEDLEPAEANEENDLD [RPB2] | 3.35 ± 0.17 | 3.42 ± 0.16 | 3.15 ± 0.19 | 3.21 ± 0.13
QKESDAKNETNSESDSK [ITC1] | 2.94 ± 0.044 | 2.85 ± 0.043 | 3.03 ± 0.046 | 3.02 ± 0.045
DFNQAKHEEIDTKNLYV [RPS10A] | 3.38 ± 0.16 | 3.07 ± 0.074 | 2.81 ± 0.12 | 3.29 ± 0.078
APDSEYLCFILSTRAGG [SNF2] | 1.97 ± 0.055 | 1.93 ± 0.041 | 1.97 ± 0.058 | 2.01 ± 0.063
TEISPMAGSQFENGNIT [RRP45] | 2.6 ± 0.063 | 2.71 ± 0.062 | 2.5 ± 0.05 | 2.86 ± 0.058
FIRDELDENKWYKFNDD [UBP6] | 1.86 ± 0.063 | 1.97 ± 0.062 | 2.15 ± 0.043 | 1.94 ± 0.096
IKQDIPIVIIFRALGII [RPB2] | 1.61 ± 0.05 | 1.49 ± 0.039 | 1.33 ± 0.037 | 1.48 ± 0.077
NTNNNDTIATSATPNAA [GAL11] | 2.7 ± 0.046 | 2.74 ± 0.043 | 2.88 ± 0.046 | 2.59 ± 0.044
YKYGYDMPCDVLAKRMA [SCL1] | 2.51 ± 0.067 | 2.29 ± 0.058 | 2.25 ± 0.049 | 2.61 ± 0.073
NREAATKEVESNIITKS [DIS3] | 2.79 ± 0.11 | 2.87 ± 0.089 | 2.94 ± 0.064 | 2.79 ± 0.074
RMRLRALETENMEIRNL [GRR1] | 3.09 ± 0.069 | 3.04 ± 0.041 | 3.02 ± 0.051 | 2.78 ± 0.055
LYSIREDYELSPQAVSS [PRE1] | 2.2 ± 0.13 | 2.38 ± 0.069 | 2.83 ± 0.097 | 2.63 ± 0.062
QQQQQQHIYPSSTPGVA [GAL11] | 2.728 ± 0.022 | 2.664 ± 0.025 | 2.78 ± 0.029 | 2.664 ± 0.023
PIKEAKIKHGSVTEIPL [YMR129W/POM152] | 2.9 ± 0.046 | 2.99 ± 0.05 | 3 ± 0.046 | 2.6 ± 0.06
WSWDIAVDNCAICRNHI [HRT1] |  | 2.04 ± 0.23 |  | 
LALKLELLDFLTSNLSN [YJL039C/NUP192] | 2.55 ± 0.053 | 2.65 ± 0.043 | 2.26 ± 0.043 | 2.45 ± 0.049
SIKSQKEEISDQKPIEH [SWI3] | 2.88 ± 0.059 | 2.96 ± 0.045 | 2.98 ± 0.055 | 2.84 ± 0.048
WAVISAFFREKGLVSQQ [RPB2] | 3.38 ± 0.14 | 3.14 ± 0.078 | 3.46 ± 0.1 | 3.29 ± 0.078
NPLWNAIIVAGVQSNGD [PRE4] | 1.25 ± 0.054 | 1.89 ± 0.04 | 1.37 ± 0.044 | 1.53 ± 0.075
GNPGLPQYQYQRRYVIK [ITC1] | 3.27 ± 0.2 | 3.34 ± 0.095 | 3.04 ± 0.15 | 2.87 ± 0.079
PAANESEVANNGLIISW [RRP42] | 1.43 ± 0.15 | 1.4 ± 0.072 | 1.49 ± 0.052 | 1.13 ± 0.28
YIQERLKSLNDIETQLC [MED11] | 2.83 ± 0.083 | 2.8 ± 0.07 | 2.68 ± 0.091 | 2.77 ± 0.1
VNLENPIPIAVLDSYTP [FAS1] | 1.42 ± 0.046 | 1.42 ± 0.027 | 1.7 ± 0.036 | 1.69 ± 0.071
NLYDGAEHKYMPYTINE [BRR2] | 3.08 ± 0.071 | 3.28 ± 0.062 | 3.05 ± 0.071 | 3.13 ± 0.048
LPVASPFHSHLLVPASD [FAS1] | 1.61 ± 0.053 | 1.96 ± 0.044 | 1.62 ± 0.062 | 1.98 ± 0.063
LGASFGQQQQQSQTNAF [YGL172W/NUP49] | 2.09 ± 0.11 | 2.19 ± 0.075 | 2.75 ± 0.075 | 2.07 ± 0.1

Sequence | protein stability index (doa10∆) | protein stability index (ubr1∆) | protein stability index (pdr5∆) | protein stability index (san1∆)
PAPSIPSTGFKFSLPFE [YLR335W/NUP2] | 2.53 ± 0.1 | 3.05 ± 0.086 | 2.94 ± 0.072 | 2.92 ± 0.088
SQEMVPRYFSEAINGFK [SIR3] | 2.99 ± 0.079 | 2.94 ± 0.054 | 3.01 ± 0.088 | 3.14 ± 0.058
QRSKKIQPTAKVVYIQR [DIS3] | 2.23 ± 0.27 |  | 2.56 ± 0.22 | 2.92 ± 0.17
HEILSEPAIEEENGDSI [MED1] | 2.98 ± 0.17 | 3.26 ± 0.14 | 3.11 ± 0.12 | 2.99 ± 0.19
HEFFIANHDDQDDIDEM [SRP68] | 3.12 ± 0.056 | 3.23 ± 0.062 | 2.64 ± 0.061 | 3.24 ± 0.04
NNPPKPQKPVPLNVLQD [SNF2] | 3.04 ± 0.049 | 3.052 ± 0.028 | 3.38 ± 0.06 | 3.21 ± 0.045
SILESSMFLRIDYSNSQ [RGR1] | 2.42 ± 0.083 | 2.41 ± 0.063 | 2.14 ± 0.064 | 1.59 ± 0.095
NAQLSCITKQDGFKIYD [PUP2] | 3.04 ± 0.16 | 3.07 ± 0.1 | 3.17 ± 0.12 | 3.12 ± 0.098
KELNTERQIFLEACIVR [CDC53] | 2.09 ± 0.048 | 2.57 ± 0.047 | 2.23 ± 0.072 | 2.5 ± 0.056
VSSSSRHHRKTEKEEDA [ISW2] | 2.66 ± 0.064 | 2.86 ± 0.054 | 2.81 ± 0.057 | 2.05 ± 0.058
VLETHESGIKPYFEQKI [RPT6] | 2.33 ± 0.21 |  | 2.29 ± 0.28 | 2.58 ± 0.065
DDPVPTPPAIEHKPVSP [SSN2] | 2.63 ± 0.14 | 2.49 ± 0.16 | 2.59 ± 0.26 | 2.72 ± 0.29
ITMESVHEWEVSKPSLL [PRP8] | 3.29 ± 0.069 | 3.24 ± 0.056 | 3.29 ± 0.069 | 3.29 ± 0.066
VFIFPTSNWEIYKPLLF [SRB8] | 2.15 ± 0.06 | 2.74 ± 0.056 | 2.6 ± 0.083 | 2.84 ± 0.062
TIDNIDSENFSFEKLYE [YMR129W/POM152] | 3.3 ± 0.085 | 3.17 ± 0.047 | 3.26 ± 0.076 | 3.33 ± 0.074
QGIVPDIIMNPHGFPSR [RET1] | 2.64 ± 0.05 | 2.56 ± 0.037 | 2.76 ± 0.057 | 2.74 ± 0.042
YLLPDDFHFSTDRITRL [BRN1] | 2.43 ± 0.056 | 2.79 ± 0.048 | 2.5 ± 0.056 | 2.6 ± 0.063
FNRTKGKMVRAQDVALA [PRP8] | 1.86 ± 0.21 | 1.06 ± 0.096 | 1.76 ± 0.13 | 
VLFAAYKVEHPFFARFK [RPB11] | 2.71 ± 0.089 | 2.27 ± 0.1 | 1.87 ± 0.05 | 2.18 ± 0.067
GFIETTELLNIYDSEDP [RPN3] | 2.71 ± 0.091 | 3.06 ± 0.075 | 3.01 ± 0.095 | 2.85 ± 0.084
GVGILYKGMASNDERIV [BRR2] | 2.44 ± 0.098 | 3.15 ± 0.09 | 2.23 ± 0.081 | 1.79 ± 0.11
NIWLNNKIINWEISNPD [NUT1] | 2.48 ± 0.076 | 2.56 ± 0.077 | 2.56 ± 0.057 | 2.71 ± 0.11
LIELKSDLLVAPPLENE [YML103C/NUP188] | 2.41 ± 0.046 | 2.19 ± 0.05 | 2.18 ± 0.052 | 2.31 ± 0.077
ALSMGKSSAFVIDIGAS [ARP7] | 1.47 ± 0.043 | 2.1 ± 0.059 | 1.95 ± 0.069 | 1.62 ± 0.092
ITRSFKEPRLVIVTDPR [RPS0A] | 1.56 ± 0.2 | 1.28 ± 0.13 | 1.89 ± 0.13 | 1.98 ± 0.14
GSAEFNVKYRAVVFKPF [RPB7] | 2.81 ± 0.14 | 2.85 ± 0.17 | 1.85 ± 0.11 | 2.46 ± 0.1
